The nature of this series: yeast display, Sf9 membrane polyspecificity reagent, FACS + sequencing; frameworks hold sequencing errors. The method, boiled down: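 Using colony PCR, genes from sorted yeast display clones were amplified, then sequenced on MiSeq at 2 × 250 and filtered by CDR length. The clones had been stained with 10% biotinylated, detergent-solubilized Sf9 membrane reagent for 1 hour at 4 °C and sorted by FACS into low and high (top ~1%) gates on anti-HA and streptavidin fluorescence. Polyreactivity labels come from the gate of origin.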
With “QVQLVESGGGLVQAGGSLRLSCAASGRTFLLNAMGWYRQAPGKERELVATITYSGGITYYADSVKGRFTISRDNAKNTVYLQMNSLKPEDTAVYYCSTSGPQYYSRNFDYWGQGTQVTVSS”, the “polyreactivity (PSR sort gate)” value was “low polyreactivity”.

With “QVQLVESGGGLVQAGGSLRLSCAASGRTFLLYAMGWYRPAPGKERELVAAIRSSTVSTYYADSVKGRFTISRDNAKNTVYLQMNSLKPEDTAVYYCAASRPKYGPSGVRYNYWGQGTQVTVSS”, the “polyreactivity (PSR sort gate)” value is “high polyreactivity”.

With “QVQLVESGGGLVQAGGSLRLSCAASGRTFLNYPMGWYRPAPGKERELVASISSSGARTYYADSVKGRFTISRDNAKNTVYLQMNSLKPEDTAVYFCAVTAGRGGYPQGGVTRGYWGQGTQVTVSS”, the “polyreactivity (PSR sort gate)” value is reported as “high polyreactivity”.

Turning to “QVQLVESGGGLVQAGGSLRLSCAASGRTFLPNAMGWYRQAPGKERELVAAINWRGASTYYADSVKGRFTISRDNAKNTVYLQMNSLKPEDTAVYYCAVDSHYQSYYYRRYDYWGQGTQVTVSS”, the “polyreactivity (PSR sort gate)” value is listed as “low polyreactivity”.

For the sequence “QVQLVESGGGLVQAGGSLRLSCAASGRTFLPNPMGWYRQAPGKERELVAVITSGGSTNYADSVKGRFTISRDNAKNTVYLQMNSLKPEDTAVYYCAADRYSYFYIGYDYWGQGTQVTVSS”, the “polyreactivity (PSR sort gate)” value is “low polyreactivity”.

“QVQLVESGGGLVQAGGSLRLSCAASGRTFLPYAMGWYRQAPGKERELVADINWGGGSTYYADSVKGRFTISRDNATNTVYLQMNSLKQEDTALYYCATDDGYQYWYYQWYYWGQGTQVTVSS”: the “polyreactivity (PSR sort gate)” value was “low polyreactivity”.

Take “QVQLVESGGGLVQAGGSLRLSCAASGRTFLRNAMRWYRQAPGKERELVATISIGGRTYYADSVKGRFTISRDNAKNTVYLQMNSLKPEDTAVYYCNASTSILSLDWEYGSWGQGTQVTVSS”: the “polyreactivity (PSR sort gate)” value is “low polyreactivity”.

In the case of “QVQLVESGGGLVQAGGSLRLSCAASGRTFLRYAMGWYRQAPGKERELVAAISVSGGNTYYADSVKGRFTISRDNAKNTVYLQMNSLKPEDTAVYYCNKARLAAVFSYPYGYWGQVTQVTVSS”, the “polyreactivity (PSR sort gate)” value is “low polyreactivity”.

Regarding “QVQLVESGGGLVQAGGSLRLSCAASGRTFLRYAMGWYRQAPGTERELVAAISWSGGRTYYADSVKGRFTISRDNAKNTVYLQMNSLKPEDTAVYYCNKVVLYGAHYYYWGQGTQVTVSS”, the “polyreactivity (PSR sort gate)” value was “high polyreactivity”.

With “QVQLVESGGGLVQAGGSLRLSCAASGRTFLSYMGWYRQAPGKERELVAISRSGTSTYYADSVKGRFTISRDNAKNTVYLQMNSLKPEDTAVYYCAAETNTWYLFDYWGQGTQVTVSS”, the “polyreactivity (PSR sort gate)” value was “high polyreactivity”.

In the case of “QVQLVESGGGLVQAGGSLRLSCAASGRTFLTNAMGWYRQAPGKERELVAAIRWSGTSTYYADSVKGRFTISRDNAKNTVYLQMNSLKPEDTAVYYCAARKVYGSKYGYWGQGTQVTVSS”, the “polyreactivity (PSR sort gate)” value is given as “high polyreactivity”.

For “QVQLVESGGGLVQAGGSLRLSCAASGRTFLTNAMGWYRQAPGKERELVAAISSGASTNYADSVKGRFTISRDNAKNTVYLQMNSLKPEDTAVYYCAAQLTDYQSKTLSYDYWGQGTQVTVSS”, the “polyreactivity (PSR sort gate)” value is recorded as “low polyreactivity”.

Take “QVQLVESGGGLVQAGGSLRLSCAASGRTFLTYAMGWYRQAPGKERELVAAISKRGGSTYYADSVKGRFTISRDNAKNTVYLQMNSLKPEDTAVYFCAADNGNHYGFWGQGTQVTVSS”: the “polyreactivity (PSR sort gate)” value is given as “high polyreactivity”.

“QVQLVESGGGLVQAGGSLRLSCAASGRTFLVYAMGWYRQAPGKERELVAAITWTGGTTYYADSVKGRFTISRDNAKNTVYLQMNSLKPEDTAVYYCNKRGSAWLVEEVDYWGQGTQVTVSS”: the “polyreactivity (PSR sort gate)” value is “low polyreactivity”.

In the case of “QVQLVESGGGLVQAGGSLRLSCAASGRTFLVYAMGWYRQPPGTERELVAAITSGGSTYYADSVKGRFTISRDNAKNTVYLQMNSLKPEDTAVYYCAAKIRGYPRRRYDYWGQGTQVTVSS”, the “polyreactivity (PSR sort gate)” value was “high polyreactivity”.

Consider “QVQLVESGGGLVQAGGSLRLSCAASGRTFLYNAMGWYRQAPGKERELVAAISGRGGRTYYADSVKGRFTISRDNAKNTVYLQMNSLKPEDTAVYYCAASQYYRWVIGYDFEYDYWGQGTQVTVSS”, for which the “polyreactivity (PSR sort gate)” value is “high polyreactivity”.

For the sequence “QVQLVESGGGLVQAGGSLRLSCAASGRTFLYNTRGWYRQAPGKERELVATITGSGASTYYADSVKGRFTISRDNAKNTVYLQMNSLKPEDTAVYYCATDNVYAYDYWGQGTQLTVSS”, the “polyreactivity (PSR sort gate)” value was “high polyreactivity”.

On to “QVQLVESGGGLVQAGGSLRLSCAASGRTFLYSTMGWYRQAPGKERELVAAISKSVGRTYYADSVKGRFTISRDNAKNTVYLQMNSLKPEDTAVYYCAKRWYAGAQHGFDYLGQGTQVTVSS”, for which the “polyreactivity (PSR sort gate)” value is listed as “low polyreactivity”.

As for “QVQLVESGGGLVQAGGSLRLSCAASGRTFLYYAMGWESQGPGKERELVAAITGRGGSTYSADSVKGRFTISRDNAKNTVYLQMNILKPEDTAVYYCAARDNWIRRDGYWGQGTQVTVSS”, the “polyreactivity (PSR sort gate)” value is on record as “high polyreactivity”.

Regarding “QVQLVESGGGLVQAGGSLRLSCAASGRTFLYYTMGWYRQAPGKERELVAAINWSGGRTYYADSVKGRFTISRDNAKNTVYLQMNSLKPEDTAVYYCNADSRYRYDYWGQGTQVTVSS”, the “polyreactivity (PSR sort gate)” value is “low polyreactivity”.

“QVQLVESGGGLVQAGGSLRLSCAASGRTFNGYALGGYRQAPGKERELVAAICSSGGSTYYADSVKGRFTISRDNAKNTVYLQMNSLKPEDTAVYYCAARRANGFNYWGQGTQVTVSS”: the “polyreactivity (PSR sort gate)” value was “high polyreactivity”.

Regarding “QVQLVESGGGLVQAGGSLRLSCAASGRTFNGYAMGWYRQAPGKERELVAAISSSGSTNYADSVKGRFTISRDNAKNTVYLQMNSLKPEDTAVYYCAAEYYAYESVEYDYWGQGTQVTVSS”, the “polyreactivity (PSR sort gate)” value is listed as “low polyreactivity”.

“QVQLVESGGGLVQAGGSLRLSCAASGRTFNHYAMGWYSQAPGKVRELVAGITISGGSTYYADSVKGRFTISRDNAKNTVYLQMNSLKPEDTPVYYCKAVYEYYRQSKGNMDYWGQGTQGTVSS”: the “polyreactivity (PSR sort gate)” value is on record as “low polyreactivity”.

Take “QVQLVESGGGLVQAGGSLRLSCAASGRTFNLYAMVWSRQAPGKERELVAAISLSGGRTYYADSVKGRITISRDNAKNTVFLQMNRLNPEDTAVYYCNTDTSRRAVQYDYWGQGTQVSVSS”: the “polyreactivity (PSR sort gate)” value was “high polyreactivity”.

In the case of “QVQLVESGGGLVQAGGSLRLSCAASGRTFNPYAMGWYRQAPGKERELVAVISYIGGSTYADSVKGRFTISRDNEKNTVYLQMNSLKPEDTAVYYCNRATFGQWGCDYWGQGTQVTVSS”, the “polyreactivity (PSR sort gate)” value was “high polyreactivity”.

In the case of “QVQLVESGGGLVQAGGSLRLSCAASGRTFNPYSLGWYRQAPGIVRELVAAISYRGGSTYNADSVKGRFTISRDNAKNTVYLQLNSLKPEDTAVYYCAKRGYASGSKWDYGYWGQGTQVTVSS”, the “polyreactivity (PSR sort gate)” value is listed as “high polyreactivity”.

For the sequence “QVQLVESGGGLVQAGGSLRLSCAASGRTFNRYGMGWYRQAPGKERELVASITSGGSTNYADSVKGRFTISRDNAKNTVYLQMNSLKPEDTAVYYCAKRSIGRYPRTYDYWGQGTQVTVSS”, the “polyreactivity (PSR sort gate)” value is “low polyreactivity”.

Take “QVQLVESGGGLVQAGGSLRLSCAASGRTFNSNAMGWYRQAPGKERELVAAISGSGGSTYYADSVKGRFTISRDNAKNTVYLQMNSLKPEDTAVYYCAAAARQWKKYDYWGQGTQVTVSS”: the “polyreactivity (PSR sort gate)” value is reported as “high polyreactivity”.

“QVQLVESGGGLVQAGGSLRLSCAASGRTFNSYAMGWYRQAPGKEWELVASISSGGSTYYADSVKGRFTLSRDNAKNTDYLQMNSLKPEDTAVYYCAAKSVAYYSYFRRDYWGQGTQVTVSS”: the “polyreactivity (PSR sort gate)” value was “low polyreactivity”.

For the sequence “QVQLVESGGGLVQAGGSLRLSCAASGRTFNTYAMGWYSQAPGKERELVAAISRRGGSTYYADSVKGRFTISRDNAKNTDYLQMNSLKPEDTAVYYCAAGNSVGLGWGQGTQVTVSS”, the “polyreactivity (PSR sort gate)” value is on record as “high polyreactivity”.

The record behind these values is the nanobody polyreactivity screen of Harvey et al. (2022).
